Data published in patent US20200277374A1 (Alector, published 2020).

B1: anti-Siglec-7 antibody 7E11 (antibody, V domains shown)
VH: QVQLKQSGPVLVAPSQSLSITCTVSGFSLSNYGVHWVRQFPGKGLEWLGVIWAGGITNYNSVLMSRLSISKDNSKSQVFLKMNSLQTDDTAMYYCAKQGGTSFSYWGQGTLVTVSA
VL: DIQMTQSPASQSASLGESVTITCLASQTIGTWLAWYQQKPGKSPQLLIYAATSLADGVPSRFSGSGSGTKFSFKISSLQAEDFVSYYCQQLYSTPYTFGGGTKLEIK
notes: Variable domains assembled from FR and CDR entries
B2: anti-Siglec-7 antibody 4D7 (antibody, V domains shown)
VH: QVQLQQSGAELVKPGASVKLSCKTSGYTFTNYWINWVKQRPGQGLEWIGNIYSGSSRTNYNEKFKSKATLTVDTSSSTAYMQLSSLTSDDSAVYYCAREGLRAMDYWGQGTSVTVSS
VL: NZMTQFQKFMSTSVGDRVSLTCKASQKVGTNVAGFQQKPGHSPKAGIYSASTRHRGVQDRFTARGLGSDFILPITTZQLEDLAEYZCHQGNSVQYTFGGGTKLEIK
notes: as for B1
B3: anti-Siglec-7 antibody 1A12 (antibody, V domains shown)
VH: QVQLQQSGSELRSPGSSVKLSCKDFDSEVFPITYMNWVRQKPGHGFEWIGDILPSIGRTMYGEKFEDKATLDADTVSNTAYLELNSLTSEDSAIYYCARSEGYLLAYWGQGTLVTVSA
VL: DVZMTQTPLSLPVSLGDQASISCRSSQSLVHSTGNTYLHWYLQKPGQSPKLLIYKVSNRFSGVPDRFSGSGAGTDFTLKISRVEAEDLGVYFCSQNTHVPYTFGGGTKLEIK
notes: also called 1Al2

Key:
[1] = target: human Siglec-7 expressed on human cells (primary monocytes, dendritic cells, macrophages, NK cells, microglia, U937 cells, human cells of humanized mice) (human) (UniProt Q9Y286); assay: FACS, human primary monocytes; isotype control (background)
Chain of human Siglec-7 expressed on human cells (primary monocytes, dendritic cells, macrophages, NK cells, microglia, U937 cells, human cells of humanized mice) (human) (Q9Y286 19-467): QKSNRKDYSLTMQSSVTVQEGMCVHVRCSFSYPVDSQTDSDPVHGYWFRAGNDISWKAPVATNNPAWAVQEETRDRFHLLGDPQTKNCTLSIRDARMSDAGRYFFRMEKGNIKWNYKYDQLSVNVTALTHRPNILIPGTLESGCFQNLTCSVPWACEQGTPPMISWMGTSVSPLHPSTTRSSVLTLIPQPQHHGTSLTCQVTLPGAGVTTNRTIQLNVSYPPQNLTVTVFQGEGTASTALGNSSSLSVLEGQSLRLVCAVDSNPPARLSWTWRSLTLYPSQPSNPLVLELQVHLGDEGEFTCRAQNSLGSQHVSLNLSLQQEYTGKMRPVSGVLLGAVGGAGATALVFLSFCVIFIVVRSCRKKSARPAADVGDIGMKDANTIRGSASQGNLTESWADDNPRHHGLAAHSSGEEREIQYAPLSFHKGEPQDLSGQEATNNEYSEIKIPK

[2] = target: human Siglec-7 expressed on human cells (primary monocytes, dendritic cells, macrophages, NK cells, microglia, U937 cells, human cells of humanized mice) (human) (UniProt Q9Y286); assay: FACS, human primary macrophages; isotype control (background)
[3] = target: human Siglec-7 expressed on human cells (primary monocytes, dendritic cells, macrophages, NK cells, microglia, U937 cells, human cells of humanized mice) (human) (UniProt Q9Y286); assay: cell-based or functional assay
[4] = target: human Siglec-7 expressed on human cells (primary monocytes, dendritic cells, macrophages, NK cells, microglia, U937 cells, human cells of humanized mice) (human) (UniProt Q9Y286); assay: FACS, human primary dendritic cells; isotype control (background)
[5] = target: T1, human Siglec-7 expressed on human cells (primary monocytes, dendritic cells, macrophages, NK cells, … (human, UniProt Q9Y286 19-467)); assay: cell-based or functional assay
T1 sequence (Q9Y286 19-467): as above

[6] = target: T2, Siglec-7-Fc (plate immobilized) (human, UniProt Q9Y286 19-357, limits assumed); assay: RBC solid adhesion assay, plate-coated Siglec-7-Fc, antibody 0.5 or 1.0 ug/ml; % of RBC binding without antibody
T2 construct: also called Siglec-7-Fc protein; immobilized Siglec-7; not shown: Fc part
T2 sequence (Q9Y286 19-357 limits assumed): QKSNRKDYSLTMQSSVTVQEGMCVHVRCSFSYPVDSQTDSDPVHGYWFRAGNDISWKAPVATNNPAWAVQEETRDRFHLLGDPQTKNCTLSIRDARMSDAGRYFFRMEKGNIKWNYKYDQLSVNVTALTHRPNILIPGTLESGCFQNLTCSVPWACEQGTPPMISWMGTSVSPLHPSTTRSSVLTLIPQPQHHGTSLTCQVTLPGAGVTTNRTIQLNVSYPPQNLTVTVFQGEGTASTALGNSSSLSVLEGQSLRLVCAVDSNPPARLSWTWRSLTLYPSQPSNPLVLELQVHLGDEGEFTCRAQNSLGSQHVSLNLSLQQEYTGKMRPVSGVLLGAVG
Procedure: To determine which antibodies compete with ligand binding to Siglec-7, a red blood cell (RBC) solid adhesion assay was carried out in accordance with standard protocols (Kelm et al., Current Biology, 1994). Red blood cells are highly decorated with glycoproteins containing sialic acids: therefore, the ability of an antibody to block RBC binding to immobilized Siglec-7 can be used to determine ligand interference. Briefly, 5 μg/ml Siglec-7-Fc was coated overnight at RT in 96 well Immunolon plates, then washed with PBS, blocked for one hour with binding buffer (PBS containing %0.25 BSA 1 mM CaCl₂), Siglec-7 antibodies (0.5 μg/ml or 1.0 μg/ml) were bound for one hour at RT with gentle rocking. After removal of unbound antibody, red blood cells were added to each well at a concentration of 3.0×10⁶ cells per ml and incubated at RT for one hour. Unbound RBCs were then carefully washed off 3× with PBS, and water was added to each well for hypotonic lysis of bound RBCs. The plate was transferred to −80° C. for 10 minutes, followed by 37° C. for 15 minutes. Bound RBCs were detected by peroxidase activity, followed by 2N sulfuric acid to stop the reaction. Signal was detected at […]. Data was calculated as a percent of RBC binding to plate bound Siglec-7-Fc in the absence of antibody.

[7] = target: T1, human Siglec-7 expressed on human cells …; assay: FACS, human primary dendritic cells, 10 ug/ml mAb
Procedure: (§1) Initial characterization of Siglec-7 antibodies involved determining their ability to bind Siglec-7 expressed on human primary monocytes, human primary macrophages, human primary dendritic cells, human primary neutrophils, and human primary natural killer (NK) cells. Cells were harvested, plated at 10⁶/ml in a 96 well plate, and incubated in 100 ul PBS containing 2% FBS, 2 mM EDTA and 10 μg/ml Mab and Fc blocking reagent for 1 hour in ice. Cells were washed twice and incubated in 100 ul PBS containing 2% FBS, 2 mM EDTA and 5 ug/ml PE-conjugated secondary antibody for 30 minutes on ice. Cells were washed twice in cold PBS and analyze by flow cytometry on a BD FACS Canto. Data analysis and calculation of MFI values was performed with FlowJo (TreeStar) software version 10.0.7.
(§2) Percent positive binding and mean fluorescent intensity (MFI) values for cell types bound by Siglec-7 antibodies are listed in Table 4A. Binding is compared to an isotype control. The antibodies bind to human primary monocytes, human primary dendritic cells, and human primary macrophages. In Table 4A, “Buffer” refers to cells that were treated only with the PBS buffer described supra; “Secondary Ab” refers to cells that were treated only with the PE-conjugated secondary antibody; “mIgG1,” “mIgG2a,” and “mIgG2b” refer to isotype control antibodies; and “RDS7” refers to commerically available anti-Siglec-7 antibody Mab1138 (R&D Systems; Cat. No. MAB 1138).

[8] = target: T3, Histidine-tagged human Siglec-7 (NovoProtein) (human, UniProt Q9Y286 19-357, limits assumed); assay: SPR (BiaCore T200, 25 C), antibody captured on anti-mouse IgG, Siglec-7-His 100 nM, single-concentration kinetics
T3 construct: Bought protein; also called purified Siglec-7-his tagged protein; not shown: histidine tag
T3 sequence (Q9Y286 19-357 limits assumed): as above
Procedure: SPR data was collected at a rate of 10 Hz at 25′ C on a BiaCore T200 instrument. Data analysis was performed using BiaCore T200 Evaluation Software, version 2.0. HBS-EP+ (100 mM HEPES, 1.5 M NaCl, 30 mM EDTA, 0.5% v/v Surfactant P20, pH 7.4) was used as running buffer and for preparing reagents.
Mouse-derived antibodies (25 nM) against Siglec-7 were captured (60 s contact time, 30 μL/min flow rate, 0 s stabilization time) on a CM5 sensor chip (GE Healthcare) immobilized with anti-mouse IgG. Histidine-tagged human Siglec-7 (NovoProtein) was then flowed over the captured anti-Siglec-7 surface (120 s contact time, 30 μL/min flow rate, 300 s dissociation time). Concentration of antigen ranged from 5 nM to 100 nM, depending on information obtained from an initial screen. Duplicate single-concentration trials were performed and bracketed by a blank (0 nM antigen) sample. The chip surface was regenerated in between cycles using 10 mM glycine-HCl, pH1.7 (60 s contact time, 30 μL/min flow rate, 60 s stabilization time). The resulting SPR signal was obtained as the difference in response from measurements performed on a blank flow cell.
Affinity constants (KD) were calculated from the ratio kd/kₐ. For one antibody (clone 1E8), we validated the single-concentration analysis with a multiple-concentration approach (five concentrations of antigen used, plus one blank).

[9] = target: T1, human Siglec-7 expressed on human cells …; assay: cell-based or functional assay; remark: listed apart in the source
[10] = target: T1, human Siglec-7 expressed on human cells …; assay: FACS, human primary macrophages, 10 ug/ml mAb
Procedure: as §1, §2

[11] = target: T1, human Siglec-7 expressed on human cells …; assay: FACS, human primary monocytes, 10 ug/ml mAb
Procedure: as §1, §2

Molecule	Percent Siglec-7 Surface Expression, Macrophages [5] [%]	Percent Siglec-7 Surface Expression, Microglia [5] [%]	Percent Siglec-7 Surface Expression, NK cells [5] [%]	Percent RBC Binding to Siglec-7 [6] [%]	% Positive [7] [%]	MFI [7]	Kd [8] [nM]	Percent Siglec-7 Surface Expression, DCs [9] [%]	Percent Siglec-7 Surface Expression, Monocytes [9] [%]	Percent Siglec-7 Surface Expression, U937 cells [9] [%]	% Positive [10] [%]	MFI [10]	% Positive [11] [%]	MFI [11]	further results
mIgG2a isotype control antibody															% Positive [1]: 14%; MFI [1]: 141; % Positive [2]: 35.8%; MFI [2]: 648; Percent Siglec-7 Surface Expression, DCs [3]: 100%; Percent Siglec-7 Surface Expression, Macrophages [3]: 100%; Percent Siglec-7 Surface Expression, Microglia [3]: 84.2%; Percent Siglec-7 Surface Expression, Monocytes [3]: 99.4%; Percent Siglec-7 Surface Expression, NK cells [3]: 101%; Percent Siglec-7 Surface Expression, U937 cells [3]: 99.8%; % Positive [4]: 4.5%; MFI [4]: 134
B1	5.7	11.5	50.7	89.3	98.4	845	9.5	19.3	8.1	75.2	99.8	2380	93.3	278	
B2	24.1	44.3	87.6	96.5	26.1	250	2.9	73.3	33.9	84.7	99.4	4260	90.5	262	
B3	13.4	28.6	136	16.5	99.7	6090	0.6	100	39.9	87.3	99.4	15800	99.3	505	
